Assay results: paper PMC3973293, “A tRNA splicing operon: Archease endows RtcB with dual GTP/ATP cofactor specificity and accelerates RNA ligation” (Nucleic Acids Research, 2014)
Substitutions are numbered along the chain they refer to. Names and notes keep the numbering of the source.

Columns and labels:
[1] = substrate: Nc1nc2c(ncn2[C@@H]2O[C@H](COP(=O)(O)OP(=O)(O)OP(=O)(O)O)[C@@H](O)[C@H]2O)c(=O)[nH]1; test: single-turnover RNA ligation, FAM-RNA gel assay; type: biochemical, Pyrococcus horikoshii; conditions: apparent Km, RtcB 5 uM, MnCl2 0.25 mM, NaCl 300 mM, Bis-Tris pH 7.0, 70 °C, 10-nt RNA substrates 1.0 uM each, varied: cofactor
[2] = substrate: Nc1nc2c(ncn2[C@H]2C[C@H](O)[C@@H](COP(=O)(O)OP(=O)(O)OP(=O)(O)O)O2)c(=O)[nH]1; test: single-turnover RNA ligation, FAM-RNA gel assay; type: biochemical, Pyrococcus horikoshii; conditions: apparent Km, Archease 100 nM, RtcB 5 uM, MnCl2 0.25 mM, NaCl 300 mM, Bis-Tris pH 7.0, 70 °C, 10-nt RNA substrates 1.0 uM each, varied: cofactor
[3] = substrate: Nc1ncnc2c1ncn2[C@@H]1O[C@H](COP(=O)(O)OP(=O)(O)OP(=O)(O)O)[C@@H](O)[C@H]1O; test: single-turnover RNA ligation, FAM-RNA gel assay; type: biochemical, Pyrococcus horikoshii; conditions: apparent Km, Archease 800 nM, RtcB 5 uM, MnCl2 0.25 mM, NaCl 300 mM, Bis-Tris pH 7.0, 70 °C, 10-nt RNA substrates 1.0 uM each, varied: cofactor
[4] = substrate: O=P(O)(O)OP(=O)(O)OP(=O)(O)OC[C@H]1O[C@@H](n2cnc3c(O)ncnc32)[C@H](O)[C@@H]1O; test: single-turnover RNA ligation, FAM-RNA gel assay; type: biochemical, Pyrococcus horikoshii; conditions: apparent Km, Archease 100 nM, RtcB 5 uM, MnCl2 0.25 mM, NaCl 300 mM, Bis-Tris pH 7.0, 70 °C, 10-nt RNA substrates 1.0 uM each, varied: cofactor
[5] = substrate: Nc1ncnc2c1ncn2[C@@H]1O[C@H](COP(=O)(O)OP(=O)(O)OP(=O)(O)O)[C@@H](O)[C@H]1O; test: single-turnover RNA ligation, FAM-RNA gel assay; type: biochemical, Pyrococcus horikoshii; conditions: apparent Km, Archease 800 nM, RtcB 5 uM, MnCl2 0.25 mM, NaCl 300 mM, Bis-Tris pH 7.0, 70 °C, 10-nt RNA substrates 1.0 uM each, varied: cofactor; remark: listed apart in the source
Source text: single-turnover RNA ligation, FAM-RNA gel assay on RtcB·Archease | the ATP KM* value for K480A RtcB was nearly identical to the ATP KM* value

[6] = biological target: T1, Native Pyrococcus horikoshii RtcB (Pyrococcus horikoshii) (UniProt O59245)
T1 sequence: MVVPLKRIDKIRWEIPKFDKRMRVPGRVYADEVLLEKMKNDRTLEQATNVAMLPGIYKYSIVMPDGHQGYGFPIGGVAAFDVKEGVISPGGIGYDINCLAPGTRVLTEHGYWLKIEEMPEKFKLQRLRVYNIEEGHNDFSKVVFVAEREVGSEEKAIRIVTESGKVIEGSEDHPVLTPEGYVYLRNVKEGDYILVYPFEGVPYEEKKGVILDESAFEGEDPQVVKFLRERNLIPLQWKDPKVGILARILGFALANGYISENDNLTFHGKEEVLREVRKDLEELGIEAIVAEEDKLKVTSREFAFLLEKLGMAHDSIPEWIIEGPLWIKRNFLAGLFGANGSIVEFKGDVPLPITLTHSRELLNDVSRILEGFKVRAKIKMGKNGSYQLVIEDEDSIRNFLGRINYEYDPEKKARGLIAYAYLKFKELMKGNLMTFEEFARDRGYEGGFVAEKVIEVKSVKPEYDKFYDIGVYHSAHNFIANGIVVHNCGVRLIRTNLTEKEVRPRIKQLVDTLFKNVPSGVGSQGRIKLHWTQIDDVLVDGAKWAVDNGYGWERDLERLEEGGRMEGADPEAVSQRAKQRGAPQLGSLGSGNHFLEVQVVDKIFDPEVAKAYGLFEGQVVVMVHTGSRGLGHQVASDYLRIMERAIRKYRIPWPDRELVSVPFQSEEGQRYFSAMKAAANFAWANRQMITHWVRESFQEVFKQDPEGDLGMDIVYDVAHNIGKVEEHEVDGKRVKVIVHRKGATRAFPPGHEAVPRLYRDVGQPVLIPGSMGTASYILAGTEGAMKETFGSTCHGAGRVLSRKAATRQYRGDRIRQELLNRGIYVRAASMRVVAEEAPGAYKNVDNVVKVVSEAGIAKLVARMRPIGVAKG

B1: P. horikoshii RtcB (Pyrococcus horikoshii OT3) (protein)
chain 1: MVVPLKRIDKIRWEIPKFDKRMRVPGRVYADEVLLEKMKNDRTLEQATNVAMLPGIYKYSIVMPDGHQGYGFPIGGVAAFDVKEGVISPGGIGYDIN
chain 2: CGVRLIRTNLTEKEVRPRIKQLVDTLFKNVPSGVGSQGRIKLHWTQIDDVLVDGAKWAVDNGYGWERDLERLEEGGRMEGADPEAVSQRAKQRGAPQLGSLGSGNHFLEVQVVDKIFDPEVAKAYGLFEGQVVVMVHTGSRGLGHQVASDYLRIMERAIRKYRIPWPDRELVSVPFQSEEGQRYFSAMKAAANFAWANRQMITHWVRESFQEVFKQDPEGDLGMDIVYDVAHNIGKVEEHEVDGKRVKVIVHRKGATRAFPPGHEAVPRLYRDVGQPVLIPGSMGTASYILAGTEGAMKETFGSTCHGAGRVLSRKAATRQYRGDRIRQELLNRGIYVRAASMRVVAEEAPGAYKNVDNVVKVVSEAGIAKLVARMRPIGVAKG
notes: intein-free mature ligase
B1 showed a Km [1] of 2.4 ± 0.2 µM.

B2: RtcB·Archease (Pyrococcus horikoshii OT3) (protein)
chain 1: B1 chain 1
chain 2: B1 chain 2
notes: Archease untagged as described, codon-optimised, Leu inserted after ATG, E. coli BL21, 16 kDa, mostly monomer; with Protein archease
In the case of B2, the Km ([1]; Archease 100 nM) is reported as 1.5 ± 0.3 µM, the Km [2] is reported as 1.8 ± 0.1 µM and the Km [3] is reported as 3.4 ± 1.1 µM. The Km [4] was 1.9 ± 0.4 µM.

B3: RtcB·Archease (Pyrococcus horikoshii OT3; K870A) (protein)
chain 1: B1 chain 1
chain 2: B1 chain 2 with K383A
notes: as for B2
For B3, the Km [5] was 3.0 ± 1.0 µM.

B4: Pyrococcus horikoshii Archease (natural protein)
chain: MLKKWEHYEHTADIGIRGYGDSLEEAFEAVAIALFDVMVNVNKVEKKEVREIEVEAEDLEALLYSFLEELLVIHDIEGLVFRDFEVKIERVNGKYRLRAKAYGEKLDLKKHEPKEEVKAITYHDMKIERLPNGKWMAQLVPDI
Work on B4 yielded an RNA ligation product formed by 5 μM RtcB with Archease titrated in (activation levels off at 100 nM Archease; 92 nM product without Archease), 70°C, 30 min [6] of 316 nM.
